According to IntAct's records for PubMed 29187380:

Tests used:
[1] = molecular target: vac14_human VAC14 (UniProt Q08AM6)
[2] = molecular target: dock7_human DOCK7 (UniProt Q96N67)
UniProt Q96N67, sequence (Q96N67 whole entry): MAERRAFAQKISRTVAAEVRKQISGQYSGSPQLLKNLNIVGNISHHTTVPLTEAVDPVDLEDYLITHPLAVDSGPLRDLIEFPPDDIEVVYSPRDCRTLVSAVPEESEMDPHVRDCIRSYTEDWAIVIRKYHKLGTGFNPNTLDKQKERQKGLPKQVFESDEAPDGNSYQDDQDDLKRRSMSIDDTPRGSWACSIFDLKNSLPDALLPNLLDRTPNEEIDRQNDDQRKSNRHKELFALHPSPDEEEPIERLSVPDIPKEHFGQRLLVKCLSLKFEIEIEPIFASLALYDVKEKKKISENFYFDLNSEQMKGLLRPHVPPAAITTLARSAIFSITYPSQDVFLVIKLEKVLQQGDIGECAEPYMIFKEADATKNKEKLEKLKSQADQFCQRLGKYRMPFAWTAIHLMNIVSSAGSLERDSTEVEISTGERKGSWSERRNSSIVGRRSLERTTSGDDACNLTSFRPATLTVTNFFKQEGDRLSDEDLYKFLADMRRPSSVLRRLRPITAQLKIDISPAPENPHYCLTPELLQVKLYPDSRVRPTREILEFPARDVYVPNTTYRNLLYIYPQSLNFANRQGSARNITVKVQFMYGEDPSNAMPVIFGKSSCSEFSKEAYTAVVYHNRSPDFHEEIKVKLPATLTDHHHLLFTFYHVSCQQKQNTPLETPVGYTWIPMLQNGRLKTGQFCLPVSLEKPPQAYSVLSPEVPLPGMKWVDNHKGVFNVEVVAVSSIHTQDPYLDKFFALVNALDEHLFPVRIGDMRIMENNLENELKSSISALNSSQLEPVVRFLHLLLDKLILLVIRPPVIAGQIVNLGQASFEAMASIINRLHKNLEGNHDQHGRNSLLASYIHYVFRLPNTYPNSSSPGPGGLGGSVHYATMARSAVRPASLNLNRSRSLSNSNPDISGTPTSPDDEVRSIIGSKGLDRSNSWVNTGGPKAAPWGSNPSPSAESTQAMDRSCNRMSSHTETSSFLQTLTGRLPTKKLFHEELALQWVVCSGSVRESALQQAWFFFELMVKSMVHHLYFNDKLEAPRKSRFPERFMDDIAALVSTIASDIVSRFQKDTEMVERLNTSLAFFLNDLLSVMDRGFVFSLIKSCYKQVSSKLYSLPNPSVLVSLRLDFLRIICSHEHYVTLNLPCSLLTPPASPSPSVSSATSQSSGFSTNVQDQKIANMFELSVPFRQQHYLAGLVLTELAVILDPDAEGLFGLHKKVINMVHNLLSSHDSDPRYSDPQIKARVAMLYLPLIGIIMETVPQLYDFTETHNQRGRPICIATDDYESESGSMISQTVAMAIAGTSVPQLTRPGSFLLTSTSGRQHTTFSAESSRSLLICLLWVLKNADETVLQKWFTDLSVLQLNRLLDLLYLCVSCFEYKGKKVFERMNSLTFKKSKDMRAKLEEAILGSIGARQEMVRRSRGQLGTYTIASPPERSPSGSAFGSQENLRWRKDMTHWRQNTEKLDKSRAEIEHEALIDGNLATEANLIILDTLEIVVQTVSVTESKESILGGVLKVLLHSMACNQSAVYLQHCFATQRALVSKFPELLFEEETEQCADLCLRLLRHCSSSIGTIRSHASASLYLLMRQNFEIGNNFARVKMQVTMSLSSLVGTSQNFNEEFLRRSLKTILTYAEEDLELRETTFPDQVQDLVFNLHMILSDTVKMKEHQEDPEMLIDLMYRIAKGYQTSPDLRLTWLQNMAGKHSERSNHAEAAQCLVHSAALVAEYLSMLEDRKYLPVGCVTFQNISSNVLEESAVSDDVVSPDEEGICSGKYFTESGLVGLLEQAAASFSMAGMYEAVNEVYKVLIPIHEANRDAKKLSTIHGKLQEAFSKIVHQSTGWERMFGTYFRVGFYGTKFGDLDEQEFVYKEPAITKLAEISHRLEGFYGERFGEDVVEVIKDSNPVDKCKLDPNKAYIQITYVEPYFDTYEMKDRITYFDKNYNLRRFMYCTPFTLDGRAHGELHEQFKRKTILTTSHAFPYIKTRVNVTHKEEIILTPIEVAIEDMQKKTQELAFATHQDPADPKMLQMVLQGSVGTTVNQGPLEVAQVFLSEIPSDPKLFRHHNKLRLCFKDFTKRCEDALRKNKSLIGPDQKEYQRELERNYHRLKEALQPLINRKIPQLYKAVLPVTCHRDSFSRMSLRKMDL

UniProt Q08AM6, sequence (Q08AM6 whole entry): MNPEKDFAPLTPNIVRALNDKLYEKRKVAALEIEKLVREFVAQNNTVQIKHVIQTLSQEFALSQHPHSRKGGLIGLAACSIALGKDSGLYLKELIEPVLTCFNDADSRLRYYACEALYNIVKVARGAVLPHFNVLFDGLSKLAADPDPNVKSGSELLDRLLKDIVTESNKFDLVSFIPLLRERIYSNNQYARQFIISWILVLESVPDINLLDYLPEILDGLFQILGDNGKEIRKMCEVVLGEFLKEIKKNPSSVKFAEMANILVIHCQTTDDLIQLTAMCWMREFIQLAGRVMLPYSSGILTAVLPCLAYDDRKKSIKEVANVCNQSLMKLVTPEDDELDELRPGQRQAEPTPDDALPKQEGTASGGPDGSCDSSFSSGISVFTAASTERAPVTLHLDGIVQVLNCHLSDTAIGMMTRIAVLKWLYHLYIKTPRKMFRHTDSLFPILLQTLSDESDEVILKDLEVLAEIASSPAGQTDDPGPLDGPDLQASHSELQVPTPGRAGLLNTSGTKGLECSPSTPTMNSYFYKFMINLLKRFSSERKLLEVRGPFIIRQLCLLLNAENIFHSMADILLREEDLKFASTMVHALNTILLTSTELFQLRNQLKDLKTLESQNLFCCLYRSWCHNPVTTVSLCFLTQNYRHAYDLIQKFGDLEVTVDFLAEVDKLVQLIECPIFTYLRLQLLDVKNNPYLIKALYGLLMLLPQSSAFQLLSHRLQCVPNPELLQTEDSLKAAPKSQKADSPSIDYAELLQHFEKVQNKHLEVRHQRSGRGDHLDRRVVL

Substance | effect of a mutation on the interaction [1] | effect of a mutation on the interaction [2]
Neurobeachin-like protein 2 (Homo sapiens), Q6ZNJ1 G2290W;E2294G | decreasing interaction strength | decreasing interaction strength
Neurobeachin-like protein 2 (Homo sapiens), Q6ZNJ1 M2080K | decreasing interaction strength | with no effect
Neurobeachin-like protein 2 (Homo sapiens), Q6ZNJ1 P2100L | decreasing interaction strength | disrupting interaction strength
Neurobeachin-like protein 2 (Homo sapiens), Q6ZNJ1 R2172H | with no effect | disrupting interaction strength
Neurobeachin-like protein 2 (Homo sapiens), Q6ZNJ1 S2269L | increasing interaction strength | with no effect
